System: Escherichia coli TOP10
Assay: shrunken log2 fold change of peptide-encoding DNA abundance (4.5 h post-induction vs induction); higher = less antimicrobial activity (less host growth inhibition)
Settings: time post-induction: 4.5 h; library: site-saturation at positions 5, 18, 19, 20
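Also: peptides expressed intracellularly from a pBAD plasmid library in pooled LB shake-flask culture, induced with 0.3% L-arabinose, DNA abundance read by NGS, three biological replicates, DESeq2 with apeglm shrinkage.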

RRIRYRPPRLPRPRPRPKTPPRP
shrunken log2 fold change: 0.103

RRIRYRPPRLPRPRPRPKVDPRP
shrunken log2 fold change: -0.079

RRIRYRPPRLPRPRPRPKYFPRP
shrunken log2 fold change: -0.314

RRIRYRPPRLPRPRPRPKYHPRP
shrunken log2 fold change: -2.19

RRIRYRPPRLPRPRPRPLAAPRP
shrunken log2 fold change: 0.153

RRIRYRPPRLPRPRPRPLCTPRP
shrunken log2 fold change: -0.759

RRIRYRPPRLPRPRPRPLFCPRP
shrunken log2 fold change: -0.579

RRIRYRPPRLPRPRPRPLIHPRP
shrunken log2 fold change: -1.38

RRIRYRPPRLPRPRPRPLKEPRP
shrunken log2 fold change: 0.0179

RRIRYRPPRLPRPRPRPLKPPRP
shrunken log2 fold change: -0.696

RRIRYRPPRLPRPRPRPLKTPRP
shrunken log2 fold change: 0.0308

RRIRYRPPRLPRPRPRPLLCPRP
shrunken log2 fold change: -0.287

RRIRYRPPRLPRPRPRPLMNPRP
shrunken log2 fold change: -0.217

RRIRYRPPRLPRPRPRPLMVPRP
shrunken log2 fold change: -0.439

RRIRYRPPRLPRPRPRPLMYPRP
shrunken log2 fold change: -0.48

RRIRYRPPRLPRPRPRPLNCPRP
shrunken log2 fold change: -0.295

RRIRYRPPRLPRPRPRPLNDPRP
shrunken log2 fold change: -0.0303

RRIRYRPPRLPRPRPRPLNLPRP
shrunken log2 fold change: -0.369

RRIRYRPPRLPRPRPRPLNNPRP
shrunken log2 fold change: -1.29

RRIRYRPPRLPRPRPRPLNVPRP
shrunken log2 fold change: 0.0468

RRIRYRPPRLPRPRPRPLNWPRP
shrunken log2 fold change: -0.594

RRIRYRPPRLPRPRPRPLPLPRP
shrunken log2 fold change: -0.197

RRIRYRPPRLPRPRPRPLPNPRP
shrunken log2 fold change: -0.296

RRIRYRPPRLPRPRPRPLQCPRP
shrunken log2 fold change: -0.344

RRIRYRPPRLPRPRPRPLQSPRP
shrunken log2 fold change: 0.00494

RRIRYRPPRLPRPRPRPLRQPRP
shrunken log2 fold change: 0.0273

RRIRYRPPRLPRPRPRPLRYPRP
shrunken log2 fold change: -0.426

RRIRYRPPRLPRPRPRPLVVPRP
shrunken log2 fold change: -0.72

RRIRYRPPRLPRPRPRPLYGPRP
shrunken log2 fold change: -0.82

RRIRYRPPRLPRPRPRPMAFPRP
shrunken log2 fold change: -0.557

RRIRYRPPRLPRPRPRPMCPPRP
shrunken log2 fold change: -0.217

RRIRYRPPRLPRPRPRPMFMPRP
shrunken log2 fold change: -1.22

RRIRYRPPRLPRPRPRPMFWPRP
shrunken log2 fold change: -0.0534

RRIRYRPPRLPRPRPRPMGCPRP
shrunken log2 fold change: -0.0637

RRIRYRPPRLPRPRPRPMGEPRP
shrunken log2 fold change: 0.0325

RRIRYRPPRLPRPRPRPMHYPRP
shrunken log2 fold change: -1.03

RRIRYRPPRLPRPRPRPMKMPRP
shrunken log2 fold change: -0.528

RRIRYRPPRLPRPRPRPMLVPRP
shrunken log2 fold change: -0.176

RRIRYRPPRLPRPRPRPMNIPRP
shrunken log2 fold change: -0.124

RRIRYRPPRLPRPRPRPMNPPRP
shrunken log2 fold change: 0.02

RRIRYRPPRLPRPRPRPMPTPRP
shrunken log2 fold change: 0.0288

RRIRYRPPRLPRPRPRPMRAPRP
shrunken log2 fold change: 0.605

RRIRYRPPRLPRPRPRPMSAPRP
shrunken log2 fold change: -0.0208

RRIRYRPPRLPRPRPRPMSVPRP
shrunken log2 fold change: -0.0288

RRIRYRPPRLPRPRPRPMTCPRP
shrunken log2 fold change: -0.122

RRIRYRPPRLPRPRPRPMTGPRP
shrunken log2 fold change: 0.0192

RRIRYRPPRLPRPRPRPMWVPRP
shrunken log2 fold change: -0.0664

RRIRYRPPRLPRPRPRPMYCPRP
shrunken log2 fold change: -0.00674

RRIRYRPPRLPRPRPRPMYIPRP
shrunken log2 fold change: -0.0194

RRIRYRPPRLPRPRPRPMYNPRP
shrunken log2 fold change: -1.23

RRIRYRPPRLPRPRPRPNAGPRP
shrunken log2 fold change: -0.31

RRIRYRPPRLPRPRPRPNCQPRP
shrunken log2 fold change: -0.0282

RRIRYRPPRLPRPRPRPNCVPRP
shrunken log2 fold change: -0.0116

RRIRYRPPRLPRPRPRPNDGPRP
shrunken log2 fold change: -0.0117

RRIRYRPPRLPRPRPRPNEIPRP
shrunken log2 fold change: -0.807

RRIRYRPPRLPRPRPRPNEPPRP
shrunken log2 fold change: 0.00196

RRIRYRPPRLPRPRPRPNFVPRP
shrunken log2 fold change: -0.0161

RRIRYRPPRLPRPRPRPNGTPRP
shrunken log2 fold change: -0.424

RRIRYRPPRLPRPRPRPNIHPRP
shrunken log2 fold change: -0.98

RRIRYRPPRLPRPRPRPNKNPRP
shrunken log2 fold change: -0.935

RRIRYRPPRLPRPRPRPNLMPRP
shrunken log2 fold change: -0.617

RRIRYRPPRLPRPRPRPNLQPRP
shrunken log2 fold change: -0.614

RRIRYRPPRLPRPRPRPNMCPRP
shrunken log2 fold change: 0.00841

RRIRYRPPRLPRPRPRPNNQPRP
shrunken log2 fold change: -1.05

RRIRYRPPRLPRPRPRPNPMPRP
shrunken log2 fold change: -0.788

RRIRYRPPRLPRPRPRPNPPPRP
shrunken log2 fold change: 0.0395

RRIRYRPPRLPRPRPRPNRWPRP
shrunken log2 fold change: 0.135

RRIRYRPPRLPRPRPRPNSVPRP
shrunken log2 fold change: -0.257

RRIRYRPPRLPRPRPRPNTHPRP
shrunken log2 fold change: -1.02

RRIRYRPPRLPRPRPRPNWVPRP
shrunken log2 fold change: -0.443

RRIRYRPPRLPRPRPRPNYEPRP
shrunken log2 fold change: -0.399

RRIRYRPPRLPRPRPRPPAWPRP
shrunken log2 fold change: -0.0773

RRIRYRPPRLPRPRPRPPCYPRP
shrunken log2 fold change: -0.378

RRIRYRPPRLPRPRPRPPDCPRP
shrunken log2 fold change: -0.00396

RRIRYRPPRLPRPRPRPPDFPRP
shrunken log2 fold change: -0.136

RRIRYRPPRLPRPRPRPPENPRP
shrunken log2 fold change: -0.145

RRIRYRPPRLPRPRPRPPERPRP
shrunken log2 fold change: 0.251

RRIRYRPPRLPRPRPRPPFCPRP
shrunken log2 fold change: -0.332

RRIRYRPPRLPRPRPRPPGGPRP
shrunken log2 fold change: 0.259

RRIRYRPPRLPRPRPRPPGKPRP
shrunken log2 fold change: 0.157

RRIRYRPPRLPRPRPRPPGSPRP
shrunken log2 fold change: 0.0125

RRIRYRPPRLPRPRPRPPGTPRP
shrunken log2 fold change: -0.146

RRIRYRPPRLPRPRPRPPHCPRP
shrunken log2 fold change: -0.396

RRIRYRPPRLPRPRPRPPHIPRP
shrunken log2 fold change: -0.808

RRIRYRPPRLPRPRPRPPIYPRP
shrunken log2 fold change: -0.676

RRIRYRPPRLPRPRPRPPKCPRP
shrunken log2 fold change: -0.813

RRIRYRPPRLPRPRPRPPKQPRP
shrunken log2 fold change: -0.0678

RRIRYRPPRLPRPRPRPPMPPRP
shrunken log2 fold change: 0.0328

RRIRYRPPRLPRPRPRPPMQPRP
shrunken log2 fold change: -0.0424

RRIRYRPPRLPRPRPRPPPCPRP
shrunken log2 fold change: 0.574

RRIRYRPPRLPRPRPRPPQFPRP
shrunken log2 fold change: -0.213

RRIRYRPPRLPRPRPRPPQHPRP
shrunken log2 fold change: -0.171

RRIRYRPPRLPRPRPRPPQSPRP
shrunken log2 fold change: -0.118

RRIRYRPPRLPRPRPRPPQVPRP
shrunken log2 fold change: -0.0496

RRIRYRPPRLPRPRPRPPREPRP
shrunken log2 fold change: -0.0166

RRIRYRPPRLPRPRPRPPRWPRP
shrunken log2 fold change: 0.466

RRIRYRPPRLPRPRPRPPSGPRP
shrunken log2 fold change: 0.0974

RRIRYRPPRLPRPRPRPPSIPRP
shrunken log2 fold change: -0.285

RRIRYRPPRLPRPRPRPPSTPRP
shrunken log2 fold change: -0.294

RRIRYRPPRLPRPRPRPPTDPRP
shrunken log2 fold change: -0.181

RRIRYRPPRLPRPRPRPPVLPRP
shrunken log2 fold change: -0.132

RRIRYRPPRLPRPRPRPPVVPRP
shrunken log2 fold change: 0.00632

RRIRYRPPRLPRPRPRPPYEPRP
shrunken log2 fold change: -0.0831

RRIRYRPPRLPRPRPRPPYNPRP
shrunken log2 fold change: -1.41

RRIRYRPPRLPRPRPRPQAGPRP
shrunken log2 fold change: 0.00284

RRIRYRPPRLPRPRPRPQAIPRP
shrunken log2 fold change: -0.066

RRIRYRPPRLPRPRPRPQDPPRP
shrunken log2 fold change: -0.0639

RRIRYRPPRLPRPRPRPQEKPRP
shrunken log2 fold change: -0.0798

RRIRYRPPRLPRPRPRPQFCPRP
shrunken log2 fold change: -0.0677

RRIRYRPPRLPRPRPRPQFLPRP
shrunken log2 fold change: -0.132

RRIRYRPPRLPRPRPRPQFRPRP
shrunken log2 fold change: -0.18

RRIRYRPPRLPRPRPRPQIAPRP
shrunken log2 fold change: -0.242

RRIRYRPPRLPRPRPRPQKMPRP
shrunken log2 fold change: -0.295

RRIRYRPPRLPRPRPRPQLDPRP
shrunken log2 fold change: -0.555

RRIRYRPPRLPRPRPRPQPEPRP
shrunken log2 fold change: 0.239

RRIRYRPPRLPRPRPRPQPSPRP
shrunken log2 fold change: 0.0385

RRIRYRPPRLPRPRPRPQPWPRP
shrunken log2 fold change: -0.149

RRIRYRPPRLPRPRPRPQRNPRP
shrunken log2 fold change: -0.758

RRIRYRPPRLPRPRPRPQTAPRP
shrunken log2 fold change: -0.0183

RRIRYRPPRLPRPRPRPQTWPRP
shrunken log2 fold change: -0.573

RRIRYRPPRLPRPRPRPQVGPRP
shrunken log2 fold change: -0.0385

RRIRYRPPRLPRPRPRPQVPPRP
shrunken log2 fold change: -0.124

RRIRYRPPRLPRPRPRPRCKPRP
shrunken log2 fold change: -0.573

RRIRYRPPRLPRPRPRPRCSPRP
shrunken log2 fold change: -0.173

RRIRYRPPRLPRPRPRPRDCPRP
shrunken log2 fold change: -0.137

RRIRYRPPRLPRPRPRPRDMPRP
shrunken log2 fold change: -0.339

RRIRYRPPRLPRPRPRPRFMPRP
shrunken log2 fold change: -0.323

RRIRYRPPRLPRPRPRPRFWPRP
shrunken log2 fold change: 0.184

RRIRYRPPRLPRPRPRPRIFPRP
shrunken log2 fold change: -0.603

RRIRYRPPRLPRPRPRPRITPRP
shrunken log2 fold change: -0.382

RRIRYRPPRLPRPRPRPRIYPRP
shrunken log2 fold change: -0.569

RRIRYRPPRLPRPRPRPRKPPRP
shrunken log2 fold change: 0.0457

RRIRYRPPRLPRPRPRPRLFPRP
shrunken log2 fold change: -0.194

RRIRYRPPRLPRPRPRPRLMPRP
shrunken log2 fold change: -0.0571

RRIRYRPPRLPRPRPRPRLYPRP
shrunken log2 fold change: -0.247

RRIRYRPPRLPRPRPRPRPAPRP
shrunken log2 fold change: 0.393

RRIRYRPPRLPRPRPRPRSAPRP
shrunken log2 fold change: -0.0647

RRIRYRPPRLPRPRPRPRSNPRP
shrunken log2 fold change: 0.00328

RRIRYRPPRLPRPRPRPRTGPRP
shrunken log2 fold change: -0.0225

RRIRYRPPRLPRPRPRPRTNPRP
shrunken log2 fold change: -0.492

RRIRYRPPRLPRPRPRPRWLPRP
shrunken log2 fold change: -0.109

RRIRYRPPRLPRPRPRPRWTPRP
shrunken log2 fold change: 0.2

RRIRYRPPRLPRPRPRPSAYPRP
shrunken log2 fold change: -0.854

RRIRYRPPRLPRPRPRPSDIPRP
shrunken log2 fold change: -0.0657

RRIRYRPPRLPRPRPRPSDNPRP
shrunken log2 fold change: -0.827

RRIRYRPPRLPRPRPRPSDSPRP
shrunken log2 fold change: -0.191

RRIRYRPPRLPRPRPRPSENPRP
shrunken log2 fold change: -0.235

RRIRYRPPRLPRPRPRPSGCPRP
shrunken log2 fold change: -0.264

RRIRYRPPRLPRPRPRPSGLPRP
shrunken log2 fold change: -0.078

RRIRYRPPRLPRPRPRPSKPPRP
shrunken log2 fold change: -0.833

Source: the supplement of paper PMC9112550, “Optimization of the antimicrobial peptide Bac7 by deep mutational scanning” (BMC Biology, 2022)
